Test results from patent US20220098328A1, “ANTIBODIES TO M(H)DM2/4 AND THEIR USE IN DIAGNOSING AND TREATING CANCER” (NomoCan Pharmaceuticals LLC, priority 2017, published 2022).

Tests used:
[1] = tested on: HeLa cervical cancer cells; experiment: Cell-ELISA on intact cells; format: cell-based, human; conditions: mAb 5 μg/mL
Description: In a 96-well microplate, 15,000 cells/well were cultured overnight. The next day, unbound cells were washed off with sterile 1×PBS. The cells in each well were fixed with freshly prepared 4% buffered paraformaldehyde (pH 7.2) for 1 hour, followed by 3 washes with 1×PBS. The wells were then blocked with 5% BSA in PBS (100 μl/well) for 2 hours at room temperature. Microplate wells were then washed 5 times with 300 μl of ice cold 1×PBS. Monoclonal antibodies NMC-H103 (VH4/VK3) or NMC-C303 at 5 μg/mL in 1% BSA/PBS were then incubated with various cancer cells for 2 hours at room temperature. Wells were then washed with 300 μl of ice-cold 1×PBS for 5 times and corresponding secondary antibody HRP-GaH F(ab′)2 diluted 1:2000 or 1:4000 in PBS with 1% BSA were added at 100 μl/well for 1 hour at room temperature followed by washing 5 times with 300 μl of ice-cold 1×PBS. TMB Substrate Solution (1-Step™ Ultra TMB-ELISA, ThermoFisher, Cat. No. 34028) was then added at 50 μL to each microplate well and incubated at room temperature for 30 minutes. The reaction was stopped by addition of 50 μL of stop solution (ThermoFisher, Cat. No. SS04) to each well and absorbance of each well was measured at OD450 nm. The absorbance value of each experimental well was corrected for the absorbance value obtained from wells treated with isotype-identical mAbs included in each experiment.

OVCAR-3 cells = experiment: Flow cytometry on live (7AAD negative) cells; format: cell-based, human
Description: Cells that had been allowed to grow to about 80% confluency in 75 cm^2 tissue culture flasks were released with either EDTA (10 mmols; pH 7.2; 5 min, 37° C.) or Trypsin (Gibco TrypLE Express), washed several times with ice-cold PBS, and blocked for 20 minutes on ice with 5% human serum albumin in PBS (intact, non-permeabilized cells). After establishing viability, the cell number was adjusted to 10^6 cells/ml and kept in ice-cold PBS until staining. Cells were then incubated with primary antibodies NMC-H103 (VH4/VK3) or NMC-C303 (1 μg/ml) for 30 minutes on ice. Following primary antibody incubation, cells were washed 3 times with ice-cold PBS, followed by incubation with goat anti-human PE labeled secondary antibody (Life technologies H10104) on ice for 20 minutes. Cells were then washed 3 times with PBS and incubated with 7AAD (5 μl/[…] of buffer) before flow cytometry analysis using Fortessa 5.

[2] = tested on: mouse Lewis Lung cancer LL/2 cells; experiment: LL/2 syngeneic mouse model of lung cancer; format: in vivo; conditions: LL/2 s.c. in C57BL/6 mice; 0.4 mg/kg i.p. 3 times a week for 3 weeks, started with tumor cell inoculation; by day 21
Description: Methodology used (Syngeneic Mouse Models of lung, colon and pancreatic cancer): To investigate the anti-tumor effects of HDM2-specific antibodies on lung, colon and pancreatic tumors in vivo, three well-known syngeneic mouse models of lung, colon and pancreatic cancer were used (Sharma et al., 1999, J. Immunol. 163 (9):5020-5028; McIntyre, 2015, Bioassays 37(8):909-920; Li, et al., 2015, Sci. Rep. 5:7856). Subcutaneous tumors were prepared by implanting either mouse Lewis Lung cancer LL/2 cells (2.5×10^5 cells/mouse), mouse colon cancer MC-38 cells (5×10^5 cells/mouse) or mouse pancreatic cancer Panc-2 cells (2×10^6 cells/mouse) in the right flanks of 8-week-old female C57BL/6 mice (n=6-7). The mice were returned to their respective cages after tumor implantation. From day 7 after tumor implantation, the tumor volumes were measured 2 times/week with a digital caliper. In the case of MC-38 and Panc-2 study, treatment started when the tumors reached an average of 70-80 mm^3. In the case of LL/2 study, tumor cell inoculation and treatment were initiated simultaneously. Mice were micro-chipped and registered following tumor implantation. […]

B1: NMC-H103 (VH4/VK3): humanized NMC-103 variant, human IgG1, VH4 (SEQ ID NO:299) and VK3 (SEQ ID NO:297) (antibody, V domains shown)
VH: EVQLVESGGGLVQPGPSLRLSCTTSGFTFTHYYMSWVRQAPGKGLEWLGFIRNKAKGYTAEYSASVKGRFTISRDNSKSTLYLQMNSLRAEDTAVYYCARDIGDNWGQGTLVTVSS
VL: DIVMTQTPLSSPVTLGQPASISCRSSKNLLHSNGITYLYWYLQKPGQSPQLLISRVSNLASGVPDRFSGSESGTDFTLKISRVEAEDVGVYFCAQLLELPYTFGGGTKVEIK
modifications: human IgG1 constant regions lacking entries; mAb NMC-H103.VH4Heavy Chain Variable Region; mAb NMC-H103.VK3Light Chain Variable Region
In the case of B1, the “binding to intact, un-permeabilized cells, cell-based ELISA” value [1] is reported as “binding”, the “binding to live cells briefly treated with trypsin, flow cytometry” value (OVCAR-3 cells; 7AAD negative) is reported as “reduced” and the “binding to live (7AAD negative) cells, flow cytometry” value (OVCAR-3 cells; antibody 1 μg/ml) is reported as “binding”.

B2: NMC-204: mouse monoclonal antibody of the IgG3 isotype that binds to NMC-P2 (SEQ ID NO:2); VH SEQ ID NO:38, VL SEQ ID NO:39 (antibody, V domains shown)
VH: EVQLQESGSVLVRPGASVKLSCKASGDTLSGSWMHWAMQRPGQGLEWIGEIHLNRGTTNYNEKFKGKATVTVDTSSSTAYVDLSSLTSEDSAVYYCARSPGFAYWGQGTLVTVSA
VL: GIVMTQAAPSVPVTPGESVSISCRSSKSLLHSNGNSYLYWFLQRPGQSPQLLIYRMSNLASGVPDRFSGSGSGTAFTLRITRVEAEDVGVYYCMQHLEYPFTFGSGTKLEIK
modifications: mAb NMC-204 Heavy Chain Variable Region; mAb NMC-204 Light Chain Variable Region
For B2, the tumor volume [2] was 1446 mm^3.
